Laboratory results from publication PMC10470860.

Legend:
[1] = system: RFTS-containing DNMT1 A554V (human); experiment: fluorescence polarization; details: 5-methylcytosine on one strand (hemimethylated), 100 nM DNA, 28 °C, triplicate, hyperbolic fit, buffer, salt and pH not given (as in ref [25])
[2] = system: RFTS-containing DNMT1 wild-type (human); experiment: fluorescence polarization; details: 5-methylcytosine on one strand (hemimethylated), 100 nM DNA, 28 °C, triplicate, hyperbolic fit, buffer, salt and pH not given (as in ref [25])

## 18 bp hemimethylated duplex DNA
[1]
  Kd: 550 nM
[2]
  Kd: 4600 nM
